Measurements as given in article PMC7897471.

Assays:
[1] = biological target: [Alexa488]-QnrB1 (QnrB1-His, N-terminally labelled with AlexaFluor 488); assay: fluorescence polarisation; fluorescence anisotropy; 50 nM Alexa488-labelled QnrB1 mixed with gyrase subunit(s) in EMSA buffer (30 mM Tris-Cl pH 7.5, 75 mM KCl, 6% glycerol, 2 mM MgCl2, 1 mM DTT), 10 min at room temperature; one site specific binding fit
[2] = biological target: [Alexa488]-QnrB1 (QnrB1-His, N-terminally labelled with AlexaFluor 488); assay: fluorescence polarisation; as a1 but subunits with 1 mM ADPNP, incubated for an additional 1 h at room temperature with addition of 2 mM MgCl2
[3] = biological target: E. coli DNA gyrase A2B2 complex (E. coli) (UniProt P0AES4); assay: native gel or EMSA; 20 nM 147 bp pBR322 dsDNA fragment with 0.2 μM reconstituted gyrase in EMSA buffer, QnrB1 added as indicated; 30 min at 25°C; 6% polyacrylamide gel in TBM; IC50 = QnrB1 concentration that halves the bound DNA
[4] = biological target: E. coli DNA gyrase A2B2 complex (E. coli) (UniProt P0AES4)
[5] = biological target: GyrB 43 kDa domain (GyrB43), N-terminal ATPase-transducer domain of E. coli GyrB (E. coli)
[6] = biological target: E. coli DNA gyrase subunit B, full-length untagged (E. coli) (UniProt P0AES6)
[7] = biological target: GyrB 43 kDa domain (GyrB43), N-terminal ATPase-transducer domain of E. coli GyrB (E. coli); remark: listed apart in the source
[8] = biological target: Gyrase (Escherichia coli) (UniProt P0AES4); conditions: cited from earlier work

Substance	Kd [1]	Kd [2]	further results
E. coli DNA gyrase A2B2 complex (from UniProt P0AES4 1-875; P0AES6 1-804)	0.08 µM	1.78 µM	
E. coli DNA gyrase subunit A, full-length untagged (from UniProt P0AES4 1-875) (natural protein)	3.9 µM		
E. coli DNA gyrase subunit B, full-length untagged (from UniProt P0AES6 1-804) (natural protein)	2.53 µM	3.8 µM	
GyrB 43 kDa domain (GyrB43), N-terminal ATPase-transducer domain of E. coli GyrB (domain or fragment)	1.77 µM	12.2 µM	
QnrB1 with a C-terminal 6xHis tag (wild type, unlabelled) (natural protein)			IC50 [3]: 10.9 µM; DNA-independent ATP hydrolysis rate of 50 nM gyrase (A2B2) with 5 μM QnrB1 [4]: 3 fold; ATPase reaction rate of 4 μM GyrB43 with 5 μM QnrB1 against no QnrB1 [5]: 17 fold; ATPase activity of the full-length GyrB subunit with QnrB1 (not shown) [6]: < 2 fold; QnrB1-dependent activation of GyrB43 ATPase activity (4 μM GyrB43, 1 mM ATP), Km for QnrB1 of a Michaelis-Menten fit [7]: 3.61 µM
YacG (from UniProt C4ZRJ5)			Ki [8]: 0.035 µM
